# Laboratory results reported in US20210403579A1 (DELINIA, published 2021).
# T1: Mouse ST2 (mouse, UniProt P14719 27-332, limits assumed)
# T1 construct: also called mouse ST2 protein
# T1 sequence (looked up): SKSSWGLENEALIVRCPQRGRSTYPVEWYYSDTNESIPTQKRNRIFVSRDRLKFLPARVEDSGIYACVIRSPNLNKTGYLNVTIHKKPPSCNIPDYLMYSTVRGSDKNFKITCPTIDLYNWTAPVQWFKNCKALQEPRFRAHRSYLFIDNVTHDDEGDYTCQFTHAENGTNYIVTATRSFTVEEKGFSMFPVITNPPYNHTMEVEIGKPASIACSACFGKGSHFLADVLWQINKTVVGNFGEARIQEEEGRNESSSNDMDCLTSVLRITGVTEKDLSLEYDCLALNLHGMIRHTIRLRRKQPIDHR
# Target: T1, Mouse ST2
# Test: SPR (Carterra), antibody immobilized, ST2 analyte, 1:1
# Protocol: Binding of the reformatted human ST2 antibodies to the human and mouse ST2 proteins was evaluated by surface plasmon resonance (SPR), using a high throughput antibody screening and characterization platform from Carterra (Salt Lake City, Utah).
Binder,Kd,koff,kon
"Human ST2 IgG1 Antibody 45 (antibody, V domains shown, IgG1, kappa; also called ST2 Antibody 45) VH: QVQLVQSGAEVKKPGSSVKVSCKASGGTFSSYAISWVRQAPGQGLEWMGGIVPIFETANYAQKFQGRVTITADESTSTAYMELSSLRSEDTAVYYCARDTPNFDYWGQGTLVTVSS VL: not shown",1400 nM,0.13 s⁻¹,95000 M⁻¹ s⁻¹
"Human ST2 IgG1 Antibody 39 (antibody, V domains shown, IgG1, kappa; also called ST2 Antibody 39) VH: QVQLVQSGAEVKKPGSSVKVSCKASGYTFTSYYMQWVRQAPGQGLEWMGGIIPIFGTANYAQKFQGRVTITADESTSTAYMELSSLRSEDTAVYYCARARFGAVDYWGQGTLVTVSS VL: not shown",3400 nM,0.14 s⁻¹,42000 M⁻¹ s⁻¹
"Human ST2 IgG1 Antibody 35 (antibody, V domains shown, IgG1, kappa; also called ST2 Antibody 35) VH: QVQLVQSGAEVKKPGASVKVSCKASAYTFTSYGISWLRQAPGQGLEWMGWINPNSGNTGYAHKFQGRVTMTRDTSTSTVYMELSSLRSEDTAVYYCARGGSGWPTWGQGTLVTVSS VL: DIQMTQSPSSLSASVGDRVTITCQASQDISNYLNWYQQKPGKAPKLLIYGASSLQSGVPSRFSGSGSGTDFTLTISSLQPEDFATYYCQQANTFPFTFGPGTKVDIKR",107 nM,0.018 s⁻¹,170000 M⁻¹ s⁻¹
"Human ST2 IgG1 Antibody 19 (antibody, V domains shown, IgG1, kappa; also called ST2 Antibody 19) VH: EVQLLESGGGLVQPGGSLRLSCAASGFSFSHAWMSWVRQAPGKGLEWVSVIHSGGSTFYADSVKGRFTISRDNSKNTLYLQMNSLRAEDTAVYYCARIGKGGGFDYWGQGTLVTVSS VL: DIQMTQSPSSLSASVGDRVTITCRASQDIGSWLAWYQQKPGKAPKLLIYAASSLQSGVPSRFSGSGSGTDFTLTISSLQPEDFATYYCQQSYSTPPTFGQGTKVEIKR",311 nM,0.11 s⁻¹,370000 M⁻¹ s⁻¹
"Human ST2 IgG1 Antibody 44 (antibody, V domains shown, IgG1, kappa; also called ST2 Antibody 44) VH: EVQLLESGGGLVKPGGSLRLSCAASGFTFSSYWMSWVRQAPGKGLEWVSAISGTAINTYYADSVKGRFTISRDDSKNTLYLQMNSLKTEDTAVYYCARVRRDSSGGGAFDIWGQGTMVTVSS VL: DIQMTQSPSSLSASVGDRVTITCRASQGISNNLNWYQQKPGKAPKLLIYAASSLQTGVPSRFSGSGSGTDFTLTISSLQPEDFATYYCQQSYSTPPTFGQGTKVEIKR",999 nM,0.11 s⁻¹,110000 M⁻¹ s⁻¹
"Human ST2 IgG1 Antibody 34 (antibody, V domains shown, IgG1, kappa; also called ST2 Antibody 34) VH: QVQLVQSGAEVKKPGASVKVSCKASGQTFTDYAINWVRQAPGQGLEWMGWMNPNSGNTGYAQKFQGRVTMTRDTSTSTVYMELSSLRSEDTAVYYCARETLEQQLPFDYWGQGTLVTVSS VL: DIQMTQSPSSLSASVGDRVTITCRASQSISSWLAWYQQKPGKAPKLLIYAASTLQSGVPSRFSGSGSGTDFTLTISSLQPEDFATYYCQQYYSTLYTFGQGTKVEIKR",126 nM,0.0019 s⁻¹,15000 M⁻¹ s⁻¹
"Human ST2 IgG1 Antibody 41 (antibody, V domains shown, IgG1, kappa; also called ST2 Antibody 41) VH: QVQLVQSGAEVKKPGSSVKVSCKASGYTFTDYQMHWVRQAPGQGLEWVGVINPGGGSTTYAQTFQGRVTITADESTSTAYMELSSLRSEDTAVYYCARGGVEYSSSWDYYYYYGMDVWGQGTTVTVSS VL: not shown",845 nM,0.11 s⁻¹,140000 M⁻¹ s⁻¹
"Human ST2 IgG1 Antibody 25 (antibody, V domains shown, IgG1, kappa; also called ST2 Antibody 25) VH: QVQLVQSGAEVKKPGSSVKVSCKASGGTFSNYAISWVRQAPGQGLEWMGWISAYNGNTNYAQKFQGRVTMTRDTSTSTVYMELSSLRSEDTAVYYCARSTNALDYWGQGTLVTVSS VL: DIQMTQSPSSLSASVGDRVTITCRASQGIRSNLDWYQQKPGKAPKLLISIVSNLGSGVPSRFSGSGSGTDFTLTISSLQPEDFATYYCLQHNSNPPTFGGGTKVEIKR",322 nM,0.064 s⁻¹,200000 M⁻¹ s⁻¹
"Human ST2 IgG1 Antibody 30 (antibody, V domains shown, IgG1, kappa; also called ST2 Antibody 30) VH: QVQLVQSGAEVKKPGSSVKVSCKASGYTFTTYGITWVRQAPGQGLEWMGGIIPIFGTANYAQKFQGRVTITADESTSTAYMELSSLRSEDTAVYYCAKLSGSSGSWDYYYYYGMDVWGQGTLVTVSS VL: DIVMTQSPLSLPVTPGEPASISCRSSQSLLHSNGYNYLDWYLQKPGQSPQLLIYAASNLQSGVPDRFSGSGSGTDFTLKISRVEAEDVGVYYCMQALQTPITFGQSTRLEIKR",2700 nM,0.13 s⁻¹,48000 M⁻¹ s⁻¹
"Human ST2 IgG1 Antibody 38 (antibody, V domains shown, IgG1, kappa; also called ST2 Antibody 38) VH: QVQLVQSGAEVKKPGSSVKVSCKASGGTFSSYAISWVRQAPGQGLEWMGTIIPMFGIADYAQKFQGRVTITADESTSTAYMELSSLRSEDTAVYYCARSSRSSSWYNWYFDLWGRGTLVTVSS VL: EIVMTQSPATLSVSPGERATLSCRASQSISSSYLAWYQQKPGQAPRLLIYGASTRATGIPARFSGSGSGTEFTLTISSLQSEDFAVYYCQQYYTTPWTFGQGTKVEIKR",529 nM,0.09 s⁻¹,170000 M⁻¹ s⁻¹
"Human ST2 IgG1 Antibody 20 (antibody, V domains shown, IgG1, kappa; also called ST2 Antibody 20) VH: EVQLLESGAEVKKPGSSVKVSCKASGGTFSSYAISWVRQAPGQGLEWMGGIIPIFGTANYAQKFQGRVTITADESTSTAYMELSSLRSEDTAVYYCASGFYSNDLYYYYYMDVWGKGTTVTVSS VL: DIQMTQSPSSLSASVGDRVTITCRASQSISSWLAWYQQKPGKAPKLLIYDASNLKTGVPSRFSGSGSGTDFTLTISSLQPEDFATYYCQQTYAIPLTFGGGTKVEIKR",2200 nM,0.17 s⁻¹,77000 M⁻¹ s⁻¹
"Human ST2 IgG1 Antibody 21 (antibody, V domains shown, IgG1, kappa; also called ST2 Antibody 21) VH: QVQLVQSGAEVKKPGASVKVSCKASGYTFSNHYMHWVRQAPGQGLEWMGWVNPTSGNTGYAQKFQGRVTMTRDTSTSTVYMELSSLRSEDTAVYYCARDLGVTYFDLWGRGTLVTVSS VL: DIQMTQSPSSLSASVGDRVTITCRASQGISSWLAWYQQKPGKAPKLLIYEASHLETGVPSRFSGSGSGTDFTLTISSLQPEDFATYYCLQDYNYPLTFGGGTKVEIKR",999 nM,0.0085 s⁻¹,8500 M⁻¹ s⁻¹
"Human ST2 IgG1 Antibody 29 (antibody, V domains shown, IgG1, kappa; also called ST2 Antibody 29) VH: QVQLVQSGAEVKKPGASVKVSCKASGGTFTGYFIHWVRQAPGQGLEWMGWMNPNSGNTGYAQKFQGRVTMTRDTSTSTVYMELSSLRSEDTAMYYCAREGQGVVPVDYWGQGTLVTVSS VL: DIQMTQSPSSLSASVGDRVTITCRASQSISSWLAWYQQKPGKAPKLLIYDATNLETGVPSRFSGSGSGTDFTLTISSLQPEDFATYYCLQDYNYPLTFGQSTKVEIKR",751 nM,0.0045 s⁻¹,5900 M⁻¹ s⁻¹

# Second part, the binder after the results:
Kd,koff,kon,Binder
2700 nM,0.13 s⁻¹,50000 M⁻¹ s⁻¹,"Human ST2 IgG1 Antibody 54 (antibody, V domains shown, IgG1, kappa; also called ST2 Antibody 54) VH: EVQLLESGGGLVQPGGSLRLSCAASGFTVSSNYMSWVRQAPGKGLEWVSAISGSGGSTYYADSVKGRFTISRDNSKNTLYLQMNSLRAEDTAVYYCARGRFGSRDVWGKGTTVTVSS VL: not shown"
436 nM,0.12 s⁻¹,270000 M⁻¹ s⁻¹,"Human ST2 IgG1 Antibody 49 (antibody, V domains shown, IgG1, kappa; also called ST2 Antibody 49) VH: QVQLVQSGAEVKKPGASVKVSCKASGGTLSSYAISWVRQAPGQGLEWMGGISPYNGKANYAEKLQGRVTMTRDTSTSTVYMELSSLRSEDTAVYYCAIRSIAAREGVYYYYMDVWGKGTTVTVSS VL: not shown"
778 nM,0.14 s⁻¹,180000 M⁻¹ s⁻¹,"Human ST2 IgG1 Antibody 76 (antibody, V domains shown, IgG1, kappa; also called ST2 Antibody 76) VH: QVQLVQSGAEVKKPGSSVKVSCKASGYTFTDYYMHWVRQAPGQGLEWMGVIIPVLGAAKYAQKFQGRVTITADESTSTAYMELSSLRSEDTAVYYCAKGWGAFDIWGQGTMVTVSS VL: EIVMTQSPATLSVSPGERATLSCRASQSVSSYLAWYQQKPGQAPRLLIYGASTRASGIPARFSGSGSGTEFTLTISSLQSEDFAVYYCQQYYSYPWTFGQGTKVEIKR"
2700 nM,0.16 s⁻¹,59000 M⁻¹ s⁻¹,"Human ST2 IgG1 Antibody 52 (antibody, V domains shown, IgG1, kappa; also called ST2 Antibody 52) VH: QVQLVQSGAEVKKPGSSVKVSCKASGGTFSNYAISWVRQAPGQGLEWMGWISAYNGNTNYAQKFQGRVTITADESTSTAYMELSSLRSEDTAVYYCARLSTVTTRPYYYYGMDVWGQGTTVTVSS VL: DIVMTQSPLSLPVTPGEPASISCRSSQSLLHSNGYNYLDWYLQKPGQSPQLLIYAASSLQGGVPDRFSGSGSGTDFTLKISRVEAEDVGVYYCMQGTHWPTFGQGTKVEIKR"
3100 nM,0.16 s⁻¹,51000 M⁻¹ s⁻¹,"Human ST2 IgG1 Antibody 57 (antibody, V domains shown, IgG1, kappa; also called ST2 Antibody 57) VH: QVQLVQSGAEVKKPGASVKVSCKASGYTFTGYYMHWVRQAPGQGLEWMGVINPSGGSTSYAQKFQGRVTMTRDTSTSTVYMELSSLRSEDTAVYYCARGDYYYGSGSDYYYYYGMDVWGQGTLVTVSS VL: DIQMTQSPSSLSASVGDRVTITCRASQGVTSWLAWYQQKPGKAPKLLIYAASTLQSGVPSRFSGSGSGTDFTLTISSLQPEDFATYYCQQANSFPLTFGGGTKVEIKR"
2400 nM,0.15 s⁻¹,62000 M⁻¹ s⁻¹,"Human ST2 IgG1 Antibody 63 (antibody, V domains shown, IgG1, kappa; also called ST2 Antibody 63) VH: QVQLVQSGAEVKKPGSSVKVSCKASGGTFSSDAINWVRQAPGQGLEWMGGIVPAFGTANYAQKFQGRVTITADESTSTAYMELSSLRSEDTAVYYCARSSSSWPYYYYYMDVWGKGTTVTVSS VL: DIVMTQSPLSLPVTPGEPASISCRSSQSLLLNNGNNFIDWYLQKPGQSPQLLIYAASILQGGVPDRFSGSGSGTDFTLKISRVEAEDVGVYYCMQALQTPPTFGQGTKVEIKR"
3900 nM,0.13 s⁻¹,33000 M⁻¹ s⁻¹,"Human ST2 IgG1 Antibody 70 (antibody, V domains shown, IgG1, kappa; also called ST2 Antibody 70) VH: QVQLVQSGAEVKKPGSSVKVSCKASGYAFTDYFIHWVRQAPGQGLEWMGGIIPIFGTANYAQKFQGRVTITADKSTSTAYMELSSLRSEDTAVYYCARVAYGAFDIWGQGTMVTVSS VL: EIVMTQSPATLSVSPGERATLSCRASQSVSSSYLAWYQQKPGQAPRLLIYGASTRATGIPARFSGSGSGTEFTLTISSLQSEDFAVYYCQQYNNWPLTFGGGTKVEIKR"
